Reference: patent US20080058636A1, “METHODS OF MYOCARDIAL IMAGING” (Epix Pharmaceuticals, Inc., priority 2005, published 2008)
Bridge positions count the residues as written; N and C are the ends. Square brackets hold non-standard residues; d marks the D form. Ends that are not written are not given here. GdDTPA‑thiourea = GdT is GdDTPA-thiourea (Gd-DTPA chelate attached through a thiourea); Cha = N[C@@H](CC1CCCCC1)C(=O)O

B1: Compound ID 802 (peptide)
chain: KKWHCYTYFPHHYCLYG
B2: Compound ID 807 (peptide)
peptide: {GdDTPA‑thiourea}-GQWHCTTRFPHHYCLYGK(GdDTPA‑thiourea)-NH2
modifications: disulfide 5-14
B3: Compound ID 815 (peptide)
chain: GQWHCTTRFPHHYCKYG
B4: Compound ID 820 (peptide)
chain: GQWTCSGDAYTWHCAYE
B5: Compound ID 821 (peptide)
chain: DWTCSRDEYTWHCNYE
B6: Compound ID 822 (peptide)
chain: DWTCRGDEYTWHCNYE
B7: Compound ID 823 (peptide)
chain: GQWTCSGDEYTWHCNY
B8: Compound ID 824 (peptide)
chain: PWTCSGDEYAWHCNYE
B9: Compound ID 826 (peptide)
chain: GQWTCYGDEYTWYCNYE
B10: Compound ID 829 (peptide)
chain: DWTCSYDEYTWHCNYE
B11: Compound ID 830 (peptide)
chain: GAWTCSGDEYTWHCNYE
B12: Compound ID 832 (peptide)
chain: GQWTCSGDEYAWHCNYE
B13: Compound ID 833 (peptide)
chain: GQWTCSGDEYTWACNYE
B14: Compound ID 834 (peptide)
chain: DWTCSGDEYYWHCNYE
B15: Compound ID 835 (peptide)
chain: DWTCSADEYTWHCNYE
B16: Compound ID 836 (peptide)
chain: DWTCSSDEYTWHCNYE
B17: Compound ID 838 (peptide)
chain: GQWTCSGDAYTWHCNYE
B18: Compound ID 839 (peptide)
chain: GQWTCSGDEYTWHCAYE
B19: Compound ID 840 (peptide)
chain: GQWACSGDEYTWHCNYE
B20: Compound ID 841 (peptide)
chain: GQWTCSGDEYTWHCNYA
B21: Compound ID 842 (peptide)
chain: DWTCSGDEYTWYCNYE
B22: Compound ID 845 (peptide)
chain: DWTCSGDEYRWHCNYE
B23: Compound ID 847 (peptide)
chain: DWTCSLDEYTWHCNYE
B24: Compound ID 853 (peptide)
chain: GQWHCTTAFPHHYCLYG
B25: Compound ID 854 (peptide)
chain: PPQWHCTTRFPHHYCLYG
B26: Compound ID 855 (peptide)
chain: GQWHCTTRFPHHYCAYG
B27: Compound ID 857 (peptide)
chain: GAWHCTTRFPHHYCLYG
B28: Compound ID 859 (peptide)
chain: GQWHCTTRYPHHYCLYG
B29: Compound ID 865 (peptide)
chain: GQWHCTTRFPAHYCLYG
B30: Compound ID 870 (peptide)
chain: GQWSCTTRFPHHYCLYG
B31: Compound ID 876 (peptide)
chain: GQWACTTRFPHHYCLYG
B32: Compound ID 877 (peptide)
chain: GQWHCATRFPHHYCLYG
B33: Compound ID 878 (peptide)
chain: GQWHCTTRFPHAYCLYG
B34: Compound ID 880 (peptide)
chain: GQWHCTTRFPSHYCLYG
B35: Compound ID 890 (peptide)
chain: GQWHCTTDFPHHYCLFG
B36: Compound ID 895 (peptide)
chain: GQWHCTTDYPHHYCLYG
B37: Compound ID 897 (peptide)
chain: GQWHCTNRFPHHYCLYG
B38: Compound ID 898 (peptide)
chain: GQWHCTSRFPHHYCLYG
B39: Compound ID 899 (peptide)
chain: GQWHCTYRFPHHYCLYG
B40: Compound ID 900 (peptide)
chain: GQWHCTRRFPHHYCLYG
B41: Compound ID 902 (peptide)
chain: GQWHCTTRFPHHRCLYG
B42: Compound ID 905 (peptide)
chain: GQWHCTTRFPHHTCLYG
B43: Compound ID 908 (peptide)
chain: GAWHCTTLFPHHYCLYG
B44: Compound ID 909 (peptide)
chain: AWHCTTLFPHHYCLYG
B45: Compound ID 910 (peptide)
chain: GDWHCTTLFPHHYCLYG
B46: Compound ID 911 (peptide)
chain: GSWHCTTLFPHHYCLYG
B47: Compound ID 912 (peptide)
chain: PPWHCTTLFPHHYCLYG
B48: Compound ID 915 (peptide)
chain: GAWHCTTYFPHHYCLYG
B49: Compound ID 917 (peptide)
chain: GQWHCTTIFPHHYCLYG
B50: Compound ID 918 (peptide)
chain: GQWHCTT[Cha]FPHHYCLYG
modifications: disulfide 5-14 (inferred)
B51: Compound ID 921 (peptide)
chain: GQWHCTYLFPHHYCLYG
B52: Compound ID 922 (peptide)
chain: GQWNCTTLFPHHYCLYG
B53: Compound ID 923 (peptide)
chain: GQWHCTTLFPNHYCLYG
B54: Compound ID 924 (peptide)
chain: GQWHCTTLFPHNYCLYG
B55: Compound ID 927 (peptide)
chain: GQWHCTTLFPHHYCIYG
B56: Compound ID 928 (peptide)
chain: GQWHCTTLFPHHYCVYG
B57: Compound ID 929 (peptide)
chain: GQWHCTTFFPHHYCLYG
B58: Compound ID 930 (peptide)
chain: GKWHCTTLFPHHYCLYG

The binders below were run against human collagen type I (acid soluble, extracted from placenta, Sigma C7774) (human) (UniProt P02452) (assay: dried collagen assay, 5 uM each).
Sequence of human collagen type I (acid soluble, extracted from placenta, Sigma C7774) (human) (P02452 162-1218 limits assumed, chain 1 of 2): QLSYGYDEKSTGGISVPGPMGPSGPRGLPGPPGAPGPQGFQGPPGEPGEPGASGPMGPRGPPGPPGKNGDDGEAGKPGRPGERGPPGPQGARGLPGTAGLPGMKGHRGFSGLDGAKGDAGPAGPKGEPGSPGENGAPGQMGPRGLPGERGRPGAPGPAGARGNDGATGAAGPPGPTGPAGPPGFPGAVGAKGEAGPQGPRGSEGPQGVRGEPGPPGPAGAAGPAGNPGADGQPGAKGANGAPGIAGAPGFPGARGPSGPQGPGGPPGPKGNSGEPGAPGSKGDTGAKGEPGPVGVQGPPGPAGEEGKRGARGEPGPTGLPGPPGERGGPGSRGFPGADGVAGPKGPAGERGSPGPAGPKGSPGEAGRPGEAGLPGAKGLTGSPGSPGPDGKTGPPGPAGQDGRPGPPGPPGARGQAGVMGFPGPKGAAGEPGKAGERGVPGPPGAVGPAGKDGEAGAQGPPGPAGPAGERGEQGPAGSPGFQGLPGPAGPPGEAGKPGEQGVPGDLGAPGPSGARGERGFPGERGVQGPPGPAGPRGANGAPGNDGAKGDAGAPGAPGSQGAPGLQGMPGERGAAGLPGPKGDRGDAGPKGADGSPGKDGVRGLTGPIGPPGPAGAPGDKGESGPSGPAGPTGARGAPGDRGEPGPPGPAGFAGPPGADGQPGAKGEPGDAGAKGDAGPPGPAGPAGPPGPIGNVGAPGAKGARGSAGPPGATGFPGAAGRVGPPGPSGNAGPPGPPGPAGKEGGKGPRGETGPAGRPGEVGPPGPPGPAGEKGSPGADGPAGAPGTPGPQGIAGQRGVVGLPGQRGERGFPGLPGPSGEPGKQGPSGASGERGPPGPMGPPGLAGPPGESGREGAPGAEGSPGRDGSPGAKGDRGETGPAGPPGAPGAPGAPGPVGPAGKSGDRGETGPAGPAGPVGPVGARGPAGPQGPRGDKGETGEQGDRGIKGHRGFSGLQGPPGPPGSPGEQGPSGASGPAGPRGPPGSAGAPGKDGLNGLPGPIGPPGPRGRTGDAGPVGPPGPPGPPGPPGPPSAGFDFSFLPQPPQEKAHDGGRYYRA
Sequence of human collagen type I (acid soluble, extracted from placenta, Sigma C7774) (human) (P08123 80-1119 limits assumed, chain 2 of 2, further chain): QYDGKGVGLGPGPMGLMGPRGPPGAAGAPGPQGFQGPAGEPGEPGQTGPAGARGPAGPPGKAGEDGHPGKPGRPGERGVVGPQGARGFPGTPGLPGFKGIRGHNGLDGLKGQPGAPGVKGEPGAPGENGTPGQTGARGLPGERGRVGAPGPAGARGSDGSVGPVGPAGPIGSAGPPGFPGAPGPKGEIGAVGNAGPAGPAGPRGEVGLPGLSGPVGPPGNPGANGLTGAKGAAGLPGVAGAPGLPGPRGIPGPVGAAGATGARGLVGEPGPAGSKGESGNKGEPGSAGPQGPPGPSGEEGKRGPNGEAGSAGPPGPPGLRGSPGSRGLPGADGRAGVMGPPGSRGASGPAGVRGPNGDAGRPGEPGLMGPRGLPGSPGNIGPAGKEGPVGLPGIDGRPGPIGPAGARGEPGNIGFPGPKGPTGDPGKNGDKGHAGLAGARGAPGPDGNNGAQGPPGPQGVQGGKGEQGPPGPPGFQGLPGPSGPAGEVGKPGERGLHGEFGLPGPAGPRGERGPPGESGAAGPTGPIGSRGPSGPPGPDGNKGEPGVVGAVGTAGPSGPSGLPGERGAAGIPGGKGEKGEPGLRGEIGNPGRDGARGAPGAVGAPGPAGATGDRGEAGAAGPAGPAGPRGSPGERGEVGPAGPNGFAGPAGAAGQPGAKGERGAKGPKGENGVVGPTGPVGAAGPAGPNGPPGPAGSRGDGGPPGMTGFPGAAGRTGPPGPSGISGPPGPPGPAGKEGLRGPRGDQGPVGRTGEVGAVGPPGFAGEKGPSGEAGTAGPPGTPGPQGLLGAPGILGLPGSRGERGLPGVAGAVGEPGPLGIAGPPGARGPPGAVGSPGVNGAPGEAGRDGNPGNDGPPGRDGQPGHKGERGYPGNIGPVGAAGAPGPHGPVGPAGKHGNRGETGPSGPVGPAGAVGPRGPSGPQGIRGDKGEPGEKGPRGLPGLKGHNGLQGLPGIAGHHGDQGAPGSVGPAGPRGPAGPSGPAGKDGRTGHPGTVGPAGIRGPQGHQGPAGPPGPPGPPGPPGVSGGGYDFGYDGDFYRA

Binder	Human binding
B1	57%
B2	48%
B3	66%
B4	60%
B5	56%
B6	47%
B7	53%
B8	12%
B9	87%
B10	20%
B11	26%
B12	12%
B13	13%
B14	22%
B15	17%
B16	13%
B17	70%
B18	30%
B19	15%
B20	51%

Binder	Human binding
B21	23%
B22	36%
B23	16%
B24	66%
B25	64%
B26	27%
B27	67%
B28	47%
B29	30%
B30	30%
B31	48%
B32	58%
B33	8%
B34	30%
B35	38%
B36	7%
B37	4%
B38	5%
B39	20%
B40	4%

Binder	Human binding
B41	7%
B42	6%
B43	20%
B44	14%
B45	13%
B46	15%
B47	20%
B48	15%
B49	12%
B50	19%
B51	68%
B52	68%
B53	28%
B54	24%
B55	64%
B56	73%
B57	27%
B58	31%

What follows are binders tested against rat collagen (acid soluble, type I, rat tail, Upstate 08-115) (rat) (UniProt P02454) (assay: dried collagen assay, 5 uM each).
Sequence of rat collagen (acid soluble, type I, rat tail, Upstate 08-115) (rat) (P02454 152-1207, chain 1 of 2): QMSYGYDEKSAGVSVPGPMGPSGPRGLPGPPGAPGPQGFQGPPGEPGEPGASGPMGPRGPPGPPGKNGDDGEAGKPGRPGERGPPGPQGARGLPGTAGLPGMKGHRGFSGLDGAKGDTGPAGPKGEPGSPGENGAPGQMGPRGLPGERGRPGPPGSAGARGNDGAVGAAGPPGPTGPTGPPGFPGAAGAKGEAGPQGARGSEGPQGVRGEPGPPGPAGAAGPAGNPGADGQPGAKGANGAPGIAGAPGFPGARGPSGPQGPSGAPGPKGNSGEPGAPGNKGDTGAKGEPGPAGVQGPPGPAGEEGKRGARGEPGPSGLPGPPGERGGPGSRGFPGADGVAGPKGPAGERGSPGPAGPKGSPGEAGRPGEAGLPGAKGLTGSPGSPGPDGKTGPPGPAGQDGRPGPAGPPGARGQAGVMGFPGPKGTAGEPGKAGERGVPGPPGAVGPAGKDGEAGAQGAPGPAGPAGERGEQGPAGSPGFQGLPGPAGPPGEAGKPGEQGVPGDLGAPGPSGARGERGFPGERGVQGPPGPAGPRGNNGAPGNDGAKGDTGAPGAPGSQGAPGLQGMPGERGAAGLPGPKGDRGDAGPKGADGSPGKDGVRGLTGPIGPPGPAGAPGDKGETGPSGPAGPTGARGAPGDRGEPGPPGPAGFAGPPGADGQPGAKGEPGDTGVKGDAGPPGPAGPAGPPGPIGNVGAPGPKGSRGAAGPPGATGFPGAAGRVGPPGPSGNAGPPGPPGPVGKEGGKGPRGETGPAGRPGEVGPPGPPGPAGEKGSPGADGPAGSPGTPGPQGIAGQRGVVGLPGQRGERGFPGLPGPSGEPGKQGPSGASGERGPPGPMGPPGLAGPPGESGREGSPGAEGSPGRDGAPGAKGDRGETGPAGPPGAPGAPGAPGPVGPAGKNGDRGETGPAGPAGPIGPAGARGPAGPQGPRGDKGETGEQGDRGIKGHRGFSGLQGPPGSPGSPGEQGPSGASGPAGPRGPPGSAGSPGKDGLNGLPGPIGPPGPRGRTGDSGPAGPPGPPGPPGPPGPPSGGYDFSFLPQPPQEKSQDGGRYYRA
Sequence of rat collagen (acid soluble, type I, rat tail, Upstate 08-115) (rat) (P02466 86-1125, chain 2 of 2, further chain): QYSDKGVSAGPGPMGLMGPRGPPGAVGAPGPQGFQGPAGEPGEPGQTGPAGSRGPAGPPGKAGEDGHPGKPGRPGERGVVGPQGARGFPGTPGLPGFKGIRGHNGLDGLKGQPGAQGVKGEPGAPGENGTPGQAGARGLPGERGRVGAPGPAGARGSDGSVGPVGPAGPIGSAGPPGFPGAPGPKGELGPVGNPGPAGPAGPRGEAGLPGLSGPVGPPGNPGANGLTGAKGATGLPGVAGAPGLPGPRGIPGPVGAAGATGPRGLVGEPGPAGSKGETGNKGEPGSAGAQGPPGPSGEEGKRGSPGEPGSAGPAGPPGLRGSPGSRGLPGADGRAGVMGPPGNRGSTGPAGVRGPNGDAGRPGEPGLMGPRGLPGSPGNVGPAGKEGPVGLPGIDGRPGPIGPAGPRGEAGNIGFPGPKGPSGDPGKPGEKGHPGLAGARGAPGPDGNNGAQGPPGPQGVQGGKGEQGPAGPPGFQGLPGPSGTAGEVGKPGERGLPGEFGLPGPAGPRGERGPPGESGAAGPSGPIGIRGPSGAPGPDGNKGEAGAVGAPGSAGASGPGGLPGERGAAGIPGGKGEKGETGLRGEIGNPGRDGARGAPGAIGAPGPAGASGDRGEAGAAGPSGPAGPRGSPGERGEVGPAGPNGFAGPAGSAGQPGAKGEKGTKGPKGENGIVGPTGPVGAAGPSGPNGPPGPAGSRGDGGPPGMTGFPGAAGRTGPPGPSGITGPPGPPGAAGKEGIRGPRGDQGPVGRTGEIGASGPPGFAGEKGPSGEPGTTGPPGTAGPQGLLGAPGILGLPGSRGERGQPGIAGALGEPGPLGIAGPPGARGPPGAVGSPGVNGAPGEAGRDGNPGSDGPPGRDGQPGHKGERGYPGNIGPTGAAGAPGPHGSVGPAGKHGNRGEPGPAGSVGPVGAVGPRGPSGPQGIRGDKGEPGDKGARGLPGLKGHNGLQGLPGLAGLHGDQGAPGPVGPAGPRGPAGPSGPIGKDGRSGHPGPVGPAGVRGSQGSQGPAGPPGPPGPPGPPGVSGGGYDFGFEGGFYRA

Binder	Rat binding
B1	45%
B2	45%
B3	59%
B4	29%
B5	29%
B6	20%
B7	28%
B8	0%
B9	71%
B10	21%
B11	11%
B12	4%
B13	4%
B14	9%
B15	9%
B16	8%
B17	61%
B18	11%
B19	3%
B20	28%

Binder	Rat binding
B21	9%
B22	10%
B23	7%
B24	57%
B25	56%
B26	15%
B27	69%
B28	38%
B29	17%
B30	28%
B31	26%
B32	41%
B33	9%
B34	0%
B35	15%
B36	0%
B37	1%
B38	3%
B39	14%
B40	1%

Binder	Rat binding
B41	2%
B42	2%
B43	0%
B44	0%
B45	0%
B46	0%
B47	0%
B48	0%
B49	0%
B50	0%
B51	35%
B52	58%
B53	10%
B54	1%
B55	63%
B56	80%
B57	34%
B58	42%
